What was measured:
[1] = biological target: T1, human LCAT-like protein/FLAG fusion protein (Homo sapiens, UniProt Q8NCC3); test: Influence of DFP and DTNB on esterase activity assayed with PNPB; assay type: biochemical; conditions: inhibitor pre-incubated 25° C. for 1 hour before substrate; PNPB 500 μM; fusion protein 3.4 μg/ml; FIG. 18
T1 construct: made in house; host or cells: baculovirus (Bac-To-Bac); secreted into the culture supernatant
T1 sequence (Q8NCC3 34-412): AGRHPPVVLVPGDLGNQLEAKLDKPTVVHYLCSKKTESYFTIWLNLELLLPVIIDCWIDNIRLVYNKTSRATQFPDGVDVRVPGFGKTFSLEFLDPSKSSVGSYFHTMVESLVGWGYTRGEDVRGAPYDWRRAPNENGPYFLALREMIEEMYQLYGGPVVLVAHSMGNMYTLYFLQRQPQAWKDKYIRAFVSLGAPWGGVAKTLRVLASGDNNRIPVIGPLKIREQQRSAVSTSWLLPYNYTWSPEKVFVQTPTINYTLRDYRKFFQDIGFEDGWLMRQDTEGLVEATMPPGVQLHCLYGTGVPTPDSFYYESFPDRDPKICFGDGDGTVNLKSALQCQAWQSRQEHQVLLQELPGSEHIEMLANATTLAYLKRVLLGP

[2] = Esterase activity assay using the fatty acid ester p-nitrophenyl butyrate (PNPB); assay type: biochemical
Protocol: Assays were carried out in accordance with the method of Bonelli, F. S. and Jonas, A. [Journal of Biological Chemistry, 264, 14723–14728, 1989]. Thus, to the reaction buffer (10 mM Tris, pH 7.4, 150 mM NaCl, 0.01% EDTA, 1 mM NaN3) was added a graded solution of p-nitrophenyl butyrate (PNPB) in acetonitrile (final concentration:5 mM–50 μM) as the substrate. Then, the human LCAT-like protein/FLAG fusion protein obtained in Example 9 was added (final concentration:3.4 μg/ml) to make 1 ml. The mixture was incubated at 37° C. for 20 minutes and the absorbance at 400 nm was measured at 2-minute intervals. From the percent changes in absorbance at the respective substrate concentrations, initial velocity was calculated, and according to the Lineweaver-Burk method, Vmax and Km were calculated (FIG. 16). […] Using 50 μl of the semi-purified enzyme solution of fractions 6 and 7 (4 ml) obtained in Example 12 (FIG. 14), a similar activity assay was carried out at a substrate concentration of 100 μM.

[3] = PNPB 5 mM–50 μM, protein 3.4 μg/ml, 37° C., compared with human plasma LCAT, FIG. 16

O=C(O)c1cc(SSc2ccc([N+](=O)[O-])c(C(=O)O)c2)ccc1[N+](=O)[O-] [DTNB, 5,5′-dithiobis(2-nitrobenzoic acid)]
inhibition of esterase activity [1]: inhibited

B1: human LCAT-like protein/FLAG fusion protein: human LCAT-like protein with FLAG peptide fused at C-terminus, expressed in insect cells, purified on anti-FLAG M2 affinity column (protein)
chain: T1 sequence (Q8NCC3 34-412)
modifications: left off: small tags and cut ends
Km (Lineweaver-Burk) [2, 3]: agreed with the values of human plasma LCAT on an order basis | Vmax (Lineweaver-Burk) [2, 3]: agreed with the values of human plasma LCAT on an order basis

B2: human LCAT-like protein: recombinant human LCAT-like protein expressed in High Five insect cells, semi-purified on Phenyl-Sepharose HP (fractions 6 and 7) (protein, UniProt Q8NCC3 34-412, looked up)
Lysosomal phospholipase A and …: T1 sequence (Q8NCC3 34-412)
esterase activity ([2]; 50 μl semi-purified enzyme solution of fractions 6 and 7 of Example 12, PNPB 100 μM, FIG. 17): confirmed to have esterase activity

Source: US7157259B2, “Murine lecithin-cholesterol acyltransferase protein” (Takeda Pharmaceutical Company Limited, priority 1997, dated 2007)
